Common to all, as to test: enzyme inhibition kinetics
The target of assay [1] is T1, Catalytic domain of human MMP-1 (MMP-1cat) (human, UniProt P03956 100-269).
T1 sequence (looked up): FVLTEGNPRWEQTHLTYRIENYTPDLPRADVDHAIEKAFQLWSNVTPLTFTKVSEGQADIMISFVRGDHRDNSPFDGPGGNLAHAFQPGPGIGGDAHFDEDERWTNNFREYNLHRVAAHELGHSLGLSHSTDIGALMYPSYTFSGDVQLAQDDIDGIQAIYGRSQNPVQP

Assay [2] concerns the target Catalytic domain of human MMP-3 (MMP-3cat) (human, UniProt P08254 100-272).
Assay [3] deals with T2, ADAMTS5-3 (human ADAMTS-5 deletion mutant, C-terminal FLAG-tag) (human, UniProt Q9UNA0 262-731).
T2 sequence (looked up): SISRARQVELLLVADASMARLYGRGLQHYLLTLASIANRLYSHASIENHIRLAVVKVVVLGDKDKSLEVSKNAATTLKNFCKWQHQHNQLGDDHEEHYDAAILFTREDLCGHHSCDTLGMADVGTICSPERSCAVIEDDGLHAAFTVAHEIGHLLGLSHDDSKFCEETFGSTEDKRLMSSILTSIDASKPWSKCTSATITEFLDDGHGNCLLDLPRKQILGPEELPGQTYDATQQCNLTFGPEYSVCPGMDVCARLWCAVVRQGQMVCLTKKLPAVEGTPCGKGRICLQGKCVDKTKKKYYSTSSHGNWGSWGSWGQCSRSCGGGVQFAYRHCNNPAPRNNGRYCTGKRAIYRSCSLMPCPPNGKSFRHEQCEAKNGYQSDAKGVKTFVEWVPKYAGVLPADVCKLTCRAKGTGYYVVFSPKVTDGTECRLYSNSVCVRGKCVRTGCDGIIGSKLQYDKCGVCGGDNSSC

Catalytic domain of human MMP-3 (MMP-3cat), sequence (P08254 100-272): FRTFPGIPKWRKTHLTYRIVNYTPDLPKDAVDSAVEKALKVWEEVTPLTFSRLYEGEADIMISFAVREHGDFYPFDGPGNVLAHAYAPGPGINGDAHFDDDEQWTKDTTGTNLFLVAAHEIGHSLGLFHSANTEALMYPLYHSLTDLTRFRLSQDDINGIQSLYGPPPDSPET

B1: FLAG-tagged glycosylated human TIMP-3 (full-length tissue inhibitor of metalloproteinases 3), expressed in HEK293 (natural protein, UniProt P35625 24-211, looked up)
chain: CTCSPSHPQDAFCNSDIVIRAKVVGKKLVKEGPFGTLVYTIKQMKMYRGFTKMPHVQYIHTEASESLCGLKLEVNKYQYLLTGRVYDGKMYTGLCNFVERWDQLTLSQRKGLNYRYHLGCNCKIKSCYYLPCFVTSKNECLWTDMLSNFGYPGYQSKHYACIRQKGGYCSWYRGWAPPDKSIINATDP
modifications: glycosylated (only the 27 kDa glycosylated form remained after purification; single N-glycosylation site in the C-terminal domain)
For orientation: Ki means a dissociation constant, usually derived from enzyme kinetics or from competition with a known ligand. Read a low Ki as tighter binding. For B1, the Ki in assay [1] stood at 1.1 nM; in assay [2] it was 1 nM; in assay [3] it was 1 nM.

(Values after article PMC2835468 (Matrix biology : journal of the International Society for …, 2009).)
